# Data as given in patent publication US20120087916A1, “ANTI-ICAM-1 ANTIBODY, USES AND METHODS” (priority 2009, published 2012).
# Entries after “also recorded” stand apart in the source; their conditions may differ.
# Tests used:
# [1] = tested on: ARH-77 myeloma cells; test: SCID/ARH-77 myeloma xenograft model (early and established subcutaneous tumours); type: in vivo, SCID mice
# Protocol: There were 8 to 10 animals per treatment group. • A and B: Early tumour model; treatment started 1 day after myeloma cell inoculation and continued until tumour volumes reached the ethical limit. (A) Tumour volume as a function of antibody dose. (B) Kaplan-Meier survival graph as a function of antibody dose. • (C) Established xenograft model; treatment with antibodies started when tumours reached a volume of approximately 100 mm^3. […] Statistical significance was calculated relative to control antibody treatment using Student t test (tumour volume) or the log-rank test (mouse survival) using Graphpad Prism software. Statistical significance was considered for *p<0.05, **p<0.01, and ***p<0.001. Graphs illustrate representative experiments out of several performed.
# Blood samples were collected at termination and analyzed by ELISA to determine BI-AB serum trough levels. Trough BI-AB serum concentrations were plotted as a function of anti-tumor activity and fitted using five parameter log-log curve and XLfit software (IDBS, Guildford, United Kingdom).
# [2] = BI-AB serum trough levels by ELISA in the ARH-77/SCID tumour model; type: in vivo, SCID mice; settings: corresponds to 0.004 mg/kg dose; from fitted five parameter log-log curve
# Protocol: (§1) FIG. 5: Calculation of MABEL: determination of BI-AB IC10 value using in vivo pharmacology assay and in vitro correlation with binding. • (A) Tumour cells were injected subcutaneously into the left flank of SCID mice (n=8 per group). Mice received twice-weekly intraperitoneal injections with BI-AB at a range of 20 to 0.002 mg/kg (until control group had to be sacrificed). […] IC10=concentration at which there is 10% inhibition; ELISA=enzyme-linked immunosorbent assay; MABEL=minimum anticipated biological effect level. • (D) ARH-77myeloma cells were injected subcutaneously into the left flank of SCID mice (n=8 per group). Mice received twice-weekly intravenous injections of BI-AB at 0.002-20 mg/kg until control group had to be sacrificed. Blood samples were collected at termination and analyzed by ELISA to determine BI-AB serum trough levels. Trough BI-AB serum concentrations were plotted as a function of anti-tumor activity and fitted using five parameter log-log curve and XLfit software (IDBS, Guildford, United Kingdom).
# Mean BI-AB serum trough concentrations of different mouse dose groups were determined by ELISA analysis of blood samples collected at different time-points during the course of in vivo experimentation. […]
# [3] = molecular target: T1, ICAM-1 epitopes on ARH-77 myeloma cells (Homo sapiens, UniProt P05362); test: Receptor occupancy / binding in vitro using human tumour cells
# T1 construct: endogenous in cells; host or cells: ARH-77 myeloma cells
# Protocol: as §1
# Receptor occupancy has been examined in vitro using human tumour cells and the BI-AB level corresponding to binding saturation has been identified. It is assumed that at this concentration, ICAM-1 epitopes on cells of the vascular compartment should be saturated, and any side effects related to the physiological function of ICAM-1 are expected to be […]. […]
# [4] = tested on: NCI-H929, EJM, RPMI-8226 myeloma cells; test: SCID xenografts of CD20-negative ICAM-1-positive myeloma cell lines; type: in vivo, SCID mice; settings: CD20-negative ICAM-1-positive lines, 2 mg/kg twice-weekly intraperitoneal from Day 1
# Protocol: (§2) Antibody treatment with 2 mg/kg BI-AB or control IgG1 was started at Day 1 and was continued on a twice-weekly intraperitoneal dosing regimen. Mice were sacrificed when tumour sizes reached the ethical limit. […] Statistical significance was calculated relative to control antibody treatment using Student t test. Statistical significance was considered for *p<0.05, **p <0.01, and ***p<0.001. ICAM-1-intercellular adhesion molecule 1; SCID=severe combined immunodeficiency
# [5] = tested on: OPM-2 myeloma cells; test: SCID xenograft of ICAM-1-negative myeloma cell line; type: in vivo, SCID mice; settings: ICAM-1-negative OPM-2; 2 mg/kg twice-weekly intraperitoneal from Day 1
# Protocol: as §2
# [6] = tested on: human multiple myeloma tumour cells; test: Disseminated tumour model (advanced experimental multiple myeloma), intravenous tumour cell inoculation; type: in vivo, SCID mice
# Protocol: SCID mice were irradiated 5 days before intravenous tumour cell inoculation. Animals received intravenous injections with antibody at 2 mg/kg or bortezomib (Velcade) at 0.5 mg/kg on Days 7, 10, 14, and 17 (as indicated by arrows in graph). There were 8 mice per treatment group. Statistical significance was calculated using Log-rank Graphpad Prism software. Significance was determined at *p<0.05, **p<0.01, and ***p<0.001.
# BI-AB anti-myeloma activity has additionally been investigated in a disseminated tumour model (a well-established experimental model of human multiple myeloma) at an independent contract research organization. […] After 190 days, when the experiment was terminated, 25% of BI-AB-treated mice were still alive.
# [7] = tested on: B-cell lymphoma; test: SCID/B-cell lymphoma tumour xenograft models; type: in vivo, SCID mice; settings: prophylactic and established models; data not shown
# [8] = Pharmacokinetics in the rat, single IV bolus injection; type: in vivo
# Text: A pharmacokinetic (PK) study of BI-AB in the rat has been performed. In this study, the doses of the antibody tested were in such excess in relation to the target antigen concentration that any binding to the target antigen would not be of significant importance for the PK profile. This fact serves as the rationale for performing a PK study in a species where the antibody will not bind to the target antigen. The pharmacokinetics of BI-AB in the rat has been investigated following a single IV bolus injection at dose levels of 0.5, 2.5 and 10 mg/kg.
# [9] = Pharmacokinetics in the cynomolgus monkey, escalation dose toxicity study; type: in vivo, cynomolgus monkeys; settings: 1-100 mg/kg
# Text: • Table 1: BI-AB levels associated 10, 50, and 90% anti-tumour activity correlated with levels of receptor binding. • a—determined in the most sensitive setting in the ARH-77/SCID in vivo tumour model, i.e., early antibody administration. • b—determined in the advanced ARH-77/SCID in vivo tumour model (mice carrying established tumours) • Table 2: Single dose pharmacokinetics of BI-AB following single IV bolus injection • Table 3: Pharmacokinetics of BI-AB following single escalating IV bolus injection The pharmacokinetics of BI-AB was investigated at dose levels of 1, 2, 8, 20, 50, and 100 mg/kg in the escalation dose toxicity study in cynomolgus monkeys. Samples for plasma analysis were taken after all dose levels. […] Cmax were generally obtained at the first sampling time of 0.5 hours post-dose. However at 100 mg/kg the Cmax was reached 8 hours post-dose. Serum concentrations declined in a generally bi-phasic manner with an elimination time ranging from 69 to 264 hours. […] There was some carry-over of the compound between treatments due to the long half-life of BI-AB.
# The pharmacokinetics of BI-AB was investigated at dose levels of 1, 2, 8, 20, 50, and 100 mg/kg in the escalation dose toxicity study in cynomolgus monkeys. Samples for plasma analysis were taken after all dose levels.
# Cmax were generally obtained at the first sampling time of 0.5 hours post-dose. However at 100 mg/kg the Cmax was reached 8 hours post-dose. Serum concentrations declined in a generally bi-phasic manner with an elimination time ranging from 69 to 264 hours. […] There was some carry-over of the compound between treatments due to the long half-life of BI-AB.
# [10] = molecular target: ICAM-1 (Homo sapiens, UniProt P05362); test: Binding of BI-AB to ICAM-1
# Text: BI-AB is a fully human immunoglobulin G subtype 1 (IgG1) monoclonal antibody expressed in Chinese Hamster Ovarian (CHO) cells. The BI-AB antibody has a theoretical molecular weight of approximately 144 kDa based on the predicted amino acid sequence. Mass spectrometry, peptide mapping and SDS-PAGE will determine molecular mass and primary and secondary structures. The biological activity is quantified using an ELISA assay, which quantitatively measures the binding of the BI-AB to ICAM-1.
# [11] = single IV bolus 0.5, 2.5 and 10 mg/kg
# T1 sequence (P05362 28-532): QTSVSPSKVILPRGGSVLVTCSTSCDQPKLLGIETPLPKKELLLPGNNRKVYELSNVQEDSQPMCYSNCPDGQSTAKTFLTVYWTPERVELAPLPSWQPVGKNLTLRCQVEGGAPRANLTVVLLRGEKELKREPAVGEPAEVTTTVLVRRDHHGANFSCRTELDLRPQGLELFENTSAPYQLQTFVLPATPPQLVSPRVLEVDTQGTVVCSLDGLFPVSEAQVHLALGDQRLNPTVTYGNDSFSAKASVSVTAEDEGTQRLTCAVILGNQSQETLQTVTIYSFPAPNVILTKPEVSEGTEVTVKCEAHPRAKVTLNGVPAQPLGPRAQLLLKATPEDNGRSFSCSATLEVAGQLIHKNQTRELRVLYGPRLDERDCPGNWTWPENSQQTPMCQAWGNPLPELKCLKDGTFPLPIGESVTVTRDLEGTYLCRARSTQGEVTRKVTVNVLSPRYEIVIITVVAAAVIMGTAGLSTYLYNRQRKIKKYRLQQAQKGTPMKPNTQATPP
# Chain of ICAM-1 (P05362 28-532): as above
molecule,measurement,setting,value
"BI-AB: fully human, high-affinity IgG1 mAb specific for ICAM-1 generated from the n-CoDeR human antibody fragment library (antibody, V domains shown) VH: EVQLLESGGGLVQPGGSLRLSCAASGFTFSNAWMSWVRQAPGKGLEWVAFIWYDGSNKYYADSVKGRFTISRDNSKNTLYLQMNSLRAEDTAVYYCARYSGWYFDYWGQGTLVTVSS VL: QSVLTQPPSASGTPGQRVTISCTGSSSNIGAGYDVHWYQQLPGTAPKLLIYDNNNRPSGVPDRFSGSKSGTSASLAISGLRSEDEADYYCQSYDSSLSAWLFGGGTKLTVLG","efficacy and potency compared with Rituximab (reducing tumour growth, prolonging survival)","[1]; SCID/ARH-77, prophylactic and established xenograft models, Rituximab e.g. 20 mg/kg",more efficacious and potent compared with Rituximab; also recorded: comparable or improved activity
same,"in vivo anti-myeloma efficacy (tumour volume, survival)","[1]; SCID/ARH-77 xenograft, twice-weekly intraperitoneal, doses 0.016, 0.16, 1.6 (16) mg/kg",significant in vivo anti-myeloma efficacy and potency
same,MABEL/IC10 dose (10% inhibition of tumour growth),"[1]; early antibody administration, twice-weekly dosing regimen",4 µg/kg
same,steady state trough serum concentration at IC10 inhibition of tumour growth,[2],0.028 µg/mL
same,ARH-77 ICAM-1 epitopes occupied by antibody in vitro,[3]; at 28 ng/mL BI-AB,approximately 30%
same,binding to ARH-77 myeloma cells,[3]; in vitro,binds to ARH-77 myeloma cells in a dose-dependent manner
same,anti-myeloma activity (tumour growth),[4],significant and ICAM-1-dependent anti-myeloma activity
same,effect on tumour growth,[5],no effect on tumour growth; also recorded: did not affect tumour growth
same,survival compared with control-treated mice,"[6]; 2 mg/kg intravenous Days 7, 10, 14, 17 (or start 1 day) after tumour cell inoculation",confers protection against advanced experimental multiple myeloma; also recorded: significantly prolonged survival
same,benchmark against Bortezomib,[6]; BI-AB 2 mg/kg vs bortezomib (Velcade) 0.5 mg/kg,superior
same,treated mice still alive,"[6]; after 190 days, when the experiment was terminated",25%
same,anti-lymphoma activity,[7],significant anti-lymphoma activity
same,systemic exposure versus sex,[8]; single IV bolus,generally independent of sex
same,clearance and volumes of distribution (Vz and Vss) versus dose,[8]; [11],dose independent
same,systemic exposure versus dose,[8]; [11],increased roughly in proportion to dose
same,time of maximum serum concentrations,[8]; [11],within the first hour
same,systemic exposure versus dose,[9],increased roughly in proportion to the dose
same,systemic exposure versus gender,[9],without gender deviations
same,volumes of distribution versus dose,[9],no dose-dependency
same,affinity and specificity of binding to ICAM-1,[10],binds with high affinity and specificity to ICAM-1
